Experimental data published in paper PMC6041257.

Target: SUFU (UniProt Q9UMX1)
Test: co-immunoprecipitation (assumed)
Settings: reference: GLI1-WT; sites S201,S204,S243

For “GLI1 (from UniProt P08151) GLI1-S201/204/243A”, the “binding against the reference” value was “weaker”.
